Reference: article PMC6806390

Biological target: T1, Myoglobin from Horse Heart (Sigma M-9267) (horse), P68082
T1 chain: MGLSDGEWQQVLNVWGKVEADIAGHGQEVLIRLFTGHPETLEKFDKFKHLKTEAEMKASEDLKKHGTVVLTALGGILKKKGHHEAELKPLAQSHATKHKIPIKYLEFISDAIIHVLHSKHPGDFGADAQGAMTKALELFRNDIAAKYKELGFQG
Assay: SDS-PAGE of the methanol precipitate
Settings: remark: other sources report otherwise

stoichiometry N: 3
B1: Myoglobin from Horse Heart (Sigma M-9267), P68082 1-154 (natural protein)
chain: T1 chain
